Experimental data reported in paper PMC6926464, “Gating control of the cardiac sodium channel Nav1.5 by its β3-subunit involves distinct roles for a transmembrane glutamic acid and the extracellular domain” (The Journal of Biological Chemistry, 2019).
Residue numbers refer to the chain shown, from its start. Numbers in names are those of the source. Where “and” joins values, the source holds several entries; their conditions need not be identical. Identical values can stand only once.

B1: full-length WT β3-subunit with C-terminal EGFP tag (natural protein, human, UniProt Q9NY72 23-215, looked up)
chain: FPVCVEVPSETEAVQGNPMKLRCISCMKREEVEATTVVEWFYRPEGGKDFLIYEYRNGHQEVESPFQGRLQWNGSKDLQDVSITVLNVTLNDSGLYTCNVSREFEFEAHRPFVKTTRLIPLRVTEEAGEDFTSVVSEIMMYILLVFLTLWLLIEMIYCYRKVSKAEEAAQENASDYLAIPSENKENSAVPVEE
notes: voltage-gated sodium channel auxiliary β3-subunit, full-length; glycosylated (multiple bands on SDS-PAGE); also called WT-β3-EGFP; FL β3-EGFP; source: HEK293F, transfected (pcDNA3 WT-β3-EGFP), in lysate; not shown: EGFP, C-terminal, kept
B2: full-length β3-subunit E176K with C-terminal EGFP tag (natural protein, human, UniProt Q9NY72 23-215, looked up)
chain: B1 chain with E154K
notes: voltage-gated sodium channel auxiliary β3-subunit, full-length, with E176K in the transmembrane region; residues numbered from the start codon of the cDNA; Made by site-directed mutagenesis of WT-β3-EGFP; also called β3-E176K-EGFP; E176K-EGFP; source: HEK293F, transfected, in lysate; not shown: EGFP, C-terminal, kept

Target: the molecule itself
Assay: cross-linking; HEK293F cells singly transfected with EGFP-tagged β3 constructs; lysate (Hanks' balanced salt solution, 1% Triton X-100, 0.2% SDS, 0.5% sodium deoxycholate) incubated with BS3 (5 mM) for 1 h at 4 °C, quenched with glycine; SDS-PAGE and anti-GFP Western blot

Protein | stoichiometry N
B1 | 2 and 3
B2 | 2 and 3
